Assay results reported in publication PMC5700200.

Target: FLAG-tagged β1 adrenergic receptor (UniProt P34971)
Experiment: proximity ligation; in situ PLA (Duolink) in HEK293 cells stably expressing FLAG-tagged β1AR or β2AR; 10 μM carvedilol, isoproterenol or other βAR ligands for 5 min, with or without 10 μM propranolol for 30 min; fixed, permeabilised; rabbit anti-β1AR (or β2AR) with mouse anti-Gαi

Sequence of UniProt P34971 (P34971 whole entry): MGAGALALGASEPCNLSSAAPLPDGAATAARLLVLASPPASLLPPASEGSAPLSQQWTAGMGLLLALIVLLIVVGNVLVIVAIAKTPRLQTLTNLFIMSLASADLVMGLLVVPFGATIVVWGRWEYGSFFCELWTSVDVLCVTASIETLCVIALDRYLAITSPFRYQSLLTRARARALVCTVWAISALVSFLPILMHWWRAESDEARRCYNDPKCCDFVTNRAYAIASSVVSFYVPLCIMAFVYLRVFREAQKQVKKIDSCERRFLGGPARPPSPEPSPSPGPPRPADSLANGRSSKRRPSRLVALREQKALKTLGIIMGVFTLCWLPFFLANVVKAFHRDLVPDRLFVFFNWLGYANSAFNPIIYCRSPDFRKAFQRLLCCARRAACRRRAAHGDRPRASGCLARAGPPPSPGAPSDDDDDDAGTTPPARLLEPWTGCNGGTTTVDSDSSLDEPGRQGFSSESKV

- fold increase in the PLA signal after carvedilol over unstimulated cells: > 2 fold
Substance: Gαi (from UniProt P08754 1-354) (natural protein)
